Test results from the supplement of paper PMC10567573.

B1: TBX5 (parent)
chain: YQNHKITQLKIENNPFAKGFRGSD
B2: MNAT1 (parent)
chain: LAPIHKLEEALYEYQPLQIETYGP

Variants of: B1
Assay: protein stability index of a GFP-peptide fusion (GPS, HEK-293T) (PSI 1-6); higher = more stable
Conditions: c terminus: a fixed tail appended
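Also: lentivirally expressed fusions sorted by FACS into six bins by GFP to DsRed ratio, PSI derived from sequencing read proportions per bin multiplied by bin number.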

Protein stability index, by site and new letter:
F16: Q 3.44 | R 3.16 | S 3.56 | T 3.47 | V 2.73 | W 1.93 | Y 2.46
A17: C 2.22 | D 2.73 | E 3.12 | F 1.95 | G 2.27 | H 2.54 | I 2.09 | K 2.73 | L 2.34 | M 2.5 | N 2.21 | P 2.77 | Q 2.54 | R 2.12 | S 2.01 | T 2.43 | V 2.73 | W 1.98 | Y 2.18
K18: A 2.24 | C 1.36 | D 2.16 | E 3.08 | F 1.7 | G 1.81 | H 2.09 | I 2.49 | L 2.06 | M 2.06 | N 2.23 | P 2.54 | Q 2.37 | R 2.77 | S 2.31 | T 1.67 | V 2.07 | W 1.63 | Y 2.12
G19: A 2.75 | C 1.74 | D 2.7 | E 3.99 | F 2.16 | H 2.55 | I 1.85 | K 2.59 | L 2.05 | M 2.29 | N 2.19 | P 2.85 | Q 3.1 | R 2.22 | S 2.76 | T 2.53 | V 2.31 | W 1.88 | Y 2.36
F20: A 3.41 | C 2.85 | D 3.41 | E 3.56 | G 2.98 | H 3.27 | I 2.47 | K 3.11 | L 2.79 | M 2.69 | N 3.28 | P 2.88 | Q 3.19 | R 3.02 | S 3.23 | T 3.04 | V 2.63 | W 2.73 | Y 2.49
R21: A 2.32 | C 2.34 | D 2.95 | E 2.58 | F 2.89 | G 2.46 | H 2.52 | I 2.19 | K 2.64 | L 2.15 | M 2.55 | N 2.61 | P 2.74 | Q 2.57 | S 2.76 | T 2.44 | V 2.51 | W 1.8 | Y 2.96
G22: A 2.37 | C 2.24 | D 2.56 | E 2.33 | F 1.74 | H 2.46 | I 2.48 | K 2.49 | L 2.02 | M 2.49 | N 2.4 | P 3.32 | Q 2.83 | R 2.12 | S 2.57 | T 2.67 | V 2.32 | W 1.76 | Y 2.63
S23: A 2.25 | C 2.49 | D 2.83 | E 2.42 | F 1.92 | G 2.59 | H 2.47 | I 2.12 | K 2.64 | L 2.11 | M 2.18 | N 2.39 | P 2.55 | Q 2.71 | R 2.63 | T 2.3 | V 2.35 | W 2.02 | Y 2.55
D24: A 2.43 | C 2.25 | E 2.64 | F 1.95 | G 2.39 | H 1.99 | I 2.08 | K 2.53 | L 1.95 | M 2.43 | N 2.57 | P 2.39 | Q 1.88 | R 2.69 | S 2.14 | T 2.11 | V 1.83 | W 1.32 | Y 2.04

Variants of: B2
Assay: as above
Conditions: c terminus: a fixed tail appended

Protein stability index of substitutions, site by site:
L1: A 2.28 | C 1.25 | D 2.31 | E 2.52 | G 1.98 | H 1.67 | I 1.94 | K 2.33 | M 1.87 | N 2.79 | P 2.3 | Q 2.47 | R 2.5 | S 2.62 | T 2.33 | V 2.31 | W 2.56 | Y 2.12
A2: C 1.68 | D 1.77 | E 2.47 | F 3.4 | G 1.45 | H 2.21 | I 1.91 | K 1.92 | L 2.93 | M 1.63 | N 2.23 | P 2.3 | Q 2.07 | R 1.62 | S 2.29 | T 2.63 | V 2.54 | W 2.44 | Y 1.9
P3: A 2.23 | C 1.53 | D 1.46 | E 1.97 | F 2.67 | G 2.02 | H 1.87 | I 2.72 | K 2.04 | L 2.95 | M 2.48 | N 1.32 | Q 1.67 | R 2.1 | S 2.12 | T 2.32 | V 2.7 | W 1.44 | Y 2.18
I4: A 2.95 | C 2.49 | D 2.78 | E 2.78 | F 1.88 | G 3.06 | H 2.63 | K 2.17 | L 2.04 | M 1.92 | N 2.35 | P 2.55 | Q 2.7 | R 2.75 | S 2.3 | T 2.15 | V 2.13 | W 1.59 | Y 1.66
H5: A 2.17 | C 1.64 | D 2.33 | E 1.92 | F 2.03 | G 1.96 | I 1.71 | K 2.62 | L 1.88 | M 1.71 | N 2.21 | P 1.84 | Q 2.92 | R 2.56 | S 2.11 | T 1.59 | V 1.49 | W 2.34 | Y 1.61
K6: A 1.97 | C 1.64 | D 1.94 | E 2.27 | F 2.75 | G 1.9 | H 1.97 | I 1.4 | L 2.29 | M 1.44 | N 2.27 | P 2.13 | Q 2.24 | R 1.8 | S 2.24 | T 1.84 | V 2.14 | W 2.4 | Y 2.1
L7: A 3.44 | C 2.69 | D 4.04 | E 3.98 | F 2.37 | G 2.81 | H 3.55 | I 2.15 | K 3.54 | M 3.05 | N 2.72 | P 3.29 | Q 2.97 | R 3.06 | S 3.52 | T 3.33 | V 2.76 | W 3.02 | Y 2.85
E8: A 1.55 | C 3.13 | D 2.52 | F 3.18 | G 2.02 | H 1.67 | I 3.59 | K 2.52 | M 3.31 | N 1.8 | P 2.19 | Q 2.05 | R 2.26 | S 1.75 | T 2 | V 1.53 | W 3.45 | Y 2.08
E9: A 2.48 | C 2.68 | D 2.25 | F 2.25 | G 2.62 | H 2.15 | I 2.42 | K 2.26 | L 3.09 | M 2.34 | N 1.78 | P 2.25 | Q 1.91 | R 1.91 | S 1.71 | T 2.16 | V 3.14 | W 2.08 | Y 1.32
A10: C 2.09 | D 2.91 | E 3.04 | F 2.45 | G 2.88 | H 2.28
